Data as given in article PMC9482650, “Quantitative fragmentomics allow affinity mapping of interactomes” (Nature Communications, 2022).
Changes are numbered by the printed parent chain.

Experiments:
Test in all cases: holdup assay
Parameters in all cases: key: below the threshold = too weak to quantify, mostly under pKd 3.1 to 4
LNX2_2, Q8N448 = molecular target: T1, LNX2_2, Q8N448
T1 sequence (Q8N448 334-432, limits assumed, looked up): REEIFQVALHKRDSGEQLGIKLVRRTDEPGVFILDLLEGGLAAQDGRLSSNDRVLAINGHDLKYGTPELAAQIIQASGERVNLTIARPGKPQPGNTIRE

NOS1, P29475 = molecular target: NOS1, P29475
Inadl_6, Q8NI35 = molecular target: Inadl_6, Q8NI35
LNX1_2, Q8TBB1 = molecular target: LNX1_2, Q8TBB1
TIAM2, Q8IVF5 = molecular target: T2, TIAM2, Q8IVF5
T2 sequence (Q8IVF5 885-986, limits assumed, looked up): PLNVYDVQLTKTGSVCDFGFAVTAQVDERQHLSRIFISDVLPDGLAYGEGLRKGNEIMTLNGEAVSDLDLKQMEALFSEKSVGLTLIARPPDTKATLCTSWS

SCRIB_3, Q14160 = molecular target: SCRIB_3, Q14160
MAGI2_4, Q86UL8 = molecular target: MAGI2_4, Q86UL8
MAGI2_5, Q86UL8 = molecular target: MAGI2_5, Q86UL8
SIPA1L2, Q9P2F8 = molecular target: T3, SIPA1L2, Q9P2F8
T3 sequence (Q9P2F8 945-1036, limits assumed, looked up): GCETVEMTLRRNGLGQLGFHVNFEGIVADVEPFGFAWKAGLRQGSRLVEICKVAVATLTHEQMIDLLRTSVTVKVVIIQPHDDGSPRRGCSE

FRMPD1, Q5SYB0 = molecular target: T4, FRMPD1, Q5SYB0
T4 sequence (Q5SYB0 52-145, limits assumed, looked up): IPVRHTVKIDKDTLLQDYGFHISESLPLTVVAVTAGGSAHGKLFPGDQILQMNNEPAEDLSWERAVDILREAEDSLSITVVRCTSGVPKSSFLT

FRMPD3, Q5JV73 = molecular target: FRMPD3, Q5JV73
GRIP1_5, Q9Y3R0 = molecular target: T5, GRIP1_5, Q9Y3R0
T5 sequence (Q9Y3R0 568-668, limits assumed, looked up): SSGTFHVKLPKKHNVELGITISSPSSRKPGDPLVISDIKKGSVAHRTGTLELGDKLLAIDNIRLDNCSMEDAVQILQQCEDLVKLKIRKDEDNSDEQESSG

NHERF3_4, Q5T2W1 = molecular target: T6, NHERF3_4, Q5T2W1
T6 sequence (Q5T2W1 373-468, limits assumed, looked up): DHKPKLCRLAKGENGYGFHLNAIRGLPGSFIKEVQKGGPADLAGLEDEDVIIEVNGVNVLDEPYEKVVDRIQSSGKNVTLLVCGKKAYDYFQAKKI

APBA2_1, Q99767 = molecular target: T7, APBA2_1, Q99767
T7 sequence (Q99767 563-664, limits assumed, looked up): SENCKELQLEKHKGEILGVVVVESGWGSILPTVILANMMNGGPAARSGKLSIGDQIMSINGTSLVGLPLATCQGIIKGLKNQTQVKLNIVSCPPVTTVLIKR

LRRC7, Q96NW7 = molecular target: T8, LRRC7, Q96NW7
T8 sequence (Q96NW7 1440-1537, limits assumed, looked up): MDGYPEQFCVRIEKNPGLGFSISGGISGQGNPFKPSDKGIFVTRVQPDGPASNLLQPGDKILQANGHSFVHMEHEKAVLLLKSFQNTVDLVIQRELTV

PDLIM1, O00151 = molecular target: PDLIM1, O00151
RADIL, Q96JH8 = molecular target: T9, RADIL, Q96JH8
T9 sequence (Q96JH8 971-1071, limits assumed, looked up): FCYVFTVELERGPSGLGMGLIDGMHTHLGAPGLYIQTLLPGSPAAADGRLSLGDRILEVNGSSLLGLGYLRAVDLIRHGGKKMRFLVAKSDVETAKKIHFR

APBA2_2, Q99767 = molecular target: T10, APBA2_2, Q99767
T10 sequence (Q99767 654-744, limits assumed, looked up): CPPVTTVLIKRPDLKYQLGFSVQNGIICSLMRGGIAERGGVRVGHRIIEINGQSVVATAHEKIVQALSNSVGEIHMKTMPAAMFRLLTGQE

MAST2, Q6P0Q8 = molecular target: MAST2, Q6P0Q8
DLG4_1, P78352 = molecular target: DLG4_1, P78352
TJP1_2, Q07157 = molecular target: TJP1_2, Q07157
APBA1_2, Q02410 = molecular target: T11, APBA1_2, Q02410
T11 sequence (Q02410 742-832, limits assumed, looked up): T10 sequence (Q99767 654-744, limits assumed, looked up) with K10R, K15R, A59P, Q65H, A66I, S70A, F84Y, G89A

DLG3_2, Q92796 = molecular target: T12, DLG3_2, Q92796
T12 sequence (Q92796 221-321, limits assumed, looked up): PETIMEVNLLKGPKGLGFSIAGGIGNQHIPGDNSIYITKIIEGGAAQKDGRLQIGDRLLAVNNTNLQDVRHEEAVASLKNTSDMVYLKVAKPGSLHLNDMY

MPP2, Q14168 = molecular target: T13, MPP2, Q14168
T13 sequence (Q14168 180-250, limits assumed, looked up): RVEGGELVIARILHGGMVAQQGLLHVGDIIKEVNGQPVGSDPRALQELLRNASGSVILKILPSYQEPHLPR

GRIP2_5, Q9C0E4 = molecular target: GRIP2_5, Q9C0E4
[1] = plain residues with an end cap or a label only (N-terminal biotin on a linker: ado-ado)
[2] = plain residues with an end cap or a label only (N-terminal biotin on a linker: ahx)

Inadl_6, Q8NI35, sequence (Q8NI35 1058-1167): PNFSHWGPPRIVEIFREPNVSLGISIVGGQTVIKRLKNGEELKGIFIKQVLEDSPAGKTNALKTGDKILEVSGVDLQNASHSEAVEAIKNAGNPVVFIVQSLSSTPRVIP
TJP1_2, Q07157, sequence (Q07157 181-274): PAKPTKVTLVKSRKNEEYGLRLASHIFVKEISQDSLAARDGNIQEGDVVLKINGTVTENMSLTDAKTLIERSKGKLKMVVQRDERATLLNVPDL
MAGI2_4, Q86UL8, sequence (Q86UL8 772-865): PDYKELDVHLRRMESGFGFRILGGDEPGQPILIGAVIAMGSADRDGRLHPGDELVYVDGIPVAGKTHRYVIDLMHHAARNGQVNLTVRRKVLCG
DLG4_1, P78352, sequence (P78352 62-152): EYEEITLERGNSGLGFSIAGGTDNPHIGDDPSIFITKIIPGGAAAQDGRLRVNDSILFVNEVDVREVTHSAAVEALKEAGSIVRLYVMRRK
MAGI2_5, Q86UL8, sequence (Q86UL8 915-1017): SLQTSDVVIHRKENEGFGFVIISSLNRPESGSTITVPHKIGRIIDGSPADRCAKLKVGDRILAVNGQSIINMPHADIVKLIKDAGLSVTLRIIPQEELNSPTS
FRMPD3, Q5JV73, sequence (Q5JV73 12-100): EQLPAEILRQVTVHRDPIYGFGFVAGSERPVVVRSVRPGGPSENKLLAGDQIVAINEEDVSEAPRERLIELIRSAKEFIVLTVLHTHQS
SCRIB_3, Q14160, sequence (Q14160 999-1103): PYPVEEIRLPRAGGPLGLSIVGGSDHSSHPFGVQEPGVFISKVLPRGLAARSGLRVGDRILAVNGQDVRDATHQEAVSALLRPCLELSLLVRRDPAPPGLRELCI
MAST2, Q6P0Q8, sequence (Q6P0Q8 1099-1202): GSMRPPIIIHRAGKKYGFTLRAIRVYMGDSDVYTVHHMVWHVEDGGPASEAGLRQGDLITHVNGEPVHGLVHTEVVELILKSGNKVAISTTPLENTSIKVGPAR
PDLIM1, O00151, sequence (O00151 1-87): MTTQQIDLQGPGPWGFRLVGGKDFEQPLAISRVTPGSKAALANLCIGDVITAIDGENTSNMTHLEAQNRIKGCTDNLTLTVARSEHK
LNX1_2, Q8TBB1, sequence (Q8TBB1 371-470): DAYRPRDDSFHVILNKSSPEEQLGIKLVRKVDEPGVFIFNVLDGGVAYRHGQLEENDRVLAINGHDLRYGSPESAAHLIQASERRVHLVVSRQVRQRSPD
NOS1, P29475, sequence (P29475 9-101): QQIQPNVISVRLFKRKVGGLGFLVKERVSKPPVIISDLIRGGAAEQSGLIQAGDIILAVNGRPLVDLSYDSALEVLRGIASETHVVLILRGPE
GRIP2_5, Q9C0E4, sequence (Q9C0E4 544-642): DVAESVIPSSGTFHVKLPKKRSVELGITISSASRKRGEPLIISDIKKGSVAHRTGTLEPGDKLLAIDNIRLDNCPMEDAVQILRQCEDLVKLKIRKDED

GTGYDRKDYV [CLDN3, O15551]
pKd (LNX2_2, Q8N448; [1]): 4.04
pKd (NOS1, P29475; [1]): 4.45
pKd (Inadl_6, Q8NI35; [1]): below the threshold
pKd (LNX1_2, Q8TBB1; [1]): below the threshold
pKd (TIAM2, Q8IVF5; [1]): below the threshold
pKd (SCRIB_3, Q14160; [1]): below the threshold
pKd (MAGI2_4, Q86UL8; [1]): 3.85
pKd (MAGI2_5, Q86UL8; [1]): below the threshold
pKd (SIPA1L2, Q9P2F8; [1]): below the threshold
pKd (FRMPD1, Q5SYB0; [1]): below the threshold
pKd (FRMPD3, Q5JV73; [1]): below the threshold
pKd (GRIP1_5, Q9Y3R0; [1]): below the threshold
pKd (NHERF3_4, Q5T2W1; [1]): below the threshold
pKd (APBA2_1, Q99767; [1]): below the threshold
pKd (LRRC7, Q96NW7; [1]): below the threshold
pKd (PDLIM1, O00151; [1]): below the threshold
pKd (RADIL, Q96JH8; [1]): 4.12
pKd (APBA2_2, Q99767; [1]): below the threshold
pKd (MAST2, Q6P0Q8; [1]): below the threshold
pKd (DLG4_1, P78352; [1]): below the threshold
pKd (TJP1_2, Q07157; [1]): 3.6
pKd (APBA1_2, Q02410; [1]): 4.24
pKd (DLG3_2, Q92796; [1]): below the threshold
pKd (MPP2, Q14168; [1]): below the threshold
pKd (GRIP2_5, Q9C0E4; [1]): below the threshold

DGVNEKVSCV [HTR2A, P28223]
pKd (LNX2_2, Q8N448; [1]): 4.42
pKd (NOS1, P29475; [1]): 3.69
pKd (Inadl_6, Q8NI35; [1]): 3.57
pKd (LNX1_2, Q8TBB1; [1]): below the threshold
pKd (TIAM2, Q8IVF5; [1]): 4.01
pKd (SCRIB_3, Q14160; [1]): 3.97
pKd (MAGI2_4, Q86UL8; [1]): 3.72
pKd (MAGI2_5, Q86UL8; [1]): 4.78
pKd (SIPA1L2, Q9P2F8; [1]): below the threshold
pKd (FRMPD1, Q5SYB0; [1]): below the threshold
pKd (FRMPD3, Q5JV73; [1]): below the threshold
pKd (GRIP1_5, Q9Y3R0; [1]): below the threshold
pKd (NHERF3_4, Q5T2W1; [1]): below the threshold
pKd (APBA2_1, Q99767; [1]): below the threshold
pKd (LRRC7, Q96NW7; [1]): below the threshold
pKd (PDLIM1, O00151; [1]): below the threshold
pKd (RADIL, Q96JH8; [1]): 4.53
pKd (APBA2_2, Q99767; [1]): below the threshold
pKd (MAST2, Q6P0Q8; [1]): 4.52
pKd (DLG4_1, P78352; [1]): 3.69
pKd (TJP1_2, Q07157; [1]): below the threshold
pKd (APBA1_2, Q02410; [1]): 4
pKd (DLG3_2, Q92796; [1]): 4.82
pKd (MPP2, Q14168; [1]): below the threshold
pKd (GRIP2_5, Q9C0E4; [1]): below the threshold

TESNLQTSSC [CGN, Q9P2M7]
pKd (LNX2_2, Q8N448; [2]): below the threshold
pKd (NOS1, P29475; [2]): below the threshold
pKd (Inadl_6, Q8NI35; [2]): below the threshold
pKd (LNX1_2, Q8TBB1; [2]): below the threshold
pKd (TIAM2, Q8IVF5; [2]): below the threshold
pKd (SCRIB_3, Q14160; [2]): below the threshold
pKd (MAGI2_4, Q86UL8; [2]): 3.53
pKd (MAGI2_5, Q86UL8; [2]): below the threshold
pKd (SIPA1L2, Q9P2F8; [2]): below the threshold
pKd (FRMPD1, Q5SYB0; [2]): below the threshold
pKd (FRMPD3, Q5JV73; [2]): below the threshold
pKd (GRIP1_5, Q9Y3R0; [2]): below the threshold
pKd (NHERF3_4, Q5T2W1; [2]): below the threshold
pKd (APBA2_1, Q99767; [2]): below the threshold
pKd (LRRC7, Q96NW7; [2]): below the threshold
pKd (PDLIM1, O00151; [2]): below the threshold
pKd (RADIL, Q96JH8; [2]): below the threshold
pKd (APBA2_2, Q99767; [2]): below the threshold
pKd (MAST2, Q6P0Q8; [2]): below the threshold
pKd (DLG4_1, P78352; [2]): below the threshold
pKd (TJP1_2, Q07157; [2]): below the threshold
pKd (APBA1_2, Q02410; [2]): below the threshold
pKd (DLG3_2, Q92796; [2]): below the threshold
pKd (MPP2, Q14168; [2]): below the threshold
pKd (GRIP2_5, Q9C0E4; [2]): below the threshold

RSSGGDDFWF [KCNV1, Q6PIU1]
pKd (LNX2_2, Q8N448; [1]): 3.8
pKd (NOS1, P29475; [1]): below the threshold
pKd (Inadl_6, Q8NI35; [1]): below the threshold
pKd (LNX1_2, Q8TBB1; [1]): below the threshold
pKd (TIAM2, Q8IVF5; [1]): 4.47
pKd (SCRIB_3, Q14160; [1]): 4.29
pKd (MAGI2_4, Q86UL8; [1]): 4.13
pKd (MAGI2_5, Q86UL8; [1]): below the threshold
pKd (SIPA1L2, Q9P2F8; [1]): below the threshold
pKd (FRMPD1, Q5SYB0; [1]): below the threshold
pKd (FRMPD3, Q5JV73; [1]): 4.82
pKd (GRIP1_5, Q9Y3R0; [1]): below the threshold
pKd (NHERF3_4, Q5T2W1; [1]): below the threshold
pKd (APBA2_1, Q99767; [1]): below the threshold
pKd (LRRC7, Q96NW7; [1]): below the threshold
pKd (PDLIM1, O00151; [1]): below the threshold
pKd (RADIL, Q96JH8; [1]): below the threshold
pKd (APBA2_2, Q99767; [1]): below the threshold
pKd (MAST2, Q6P0Q8; [1]): 4.61
pKd (DLG4_1, P78352; [1]): below the threshold
pKd (TJP1_2, Q07157; [1]): 5.12
pKd (APBA1_2, Q02410; [1]): below the threshold
pKd (DLG3_2, Q92796; [1]): 4.06
pKd (MPP2, Q14168; [1]): below the threshold
pKd (GRIP2_5, Q9C0E4; [1]): below the threshold

APSRKLNTEI [TIAM1, Q13009]
pKd (LNX2_2, Q8N448; [2]): below the threshold
pKd (NOS1, P29475; [2]): below the threshold
pKd (Inadl_6, Q8NI35; [2]): below the threshold
pKd (LNX1_2, Q8TBB1; [2]): below the threshold
pKd (TIAM2, Q8IVF5; [2]): below the threshold
pKd (SCRIB_3, Q14160; [2]): below the threshold
pKd (MAGI2_4, Q86UL8; [2]): below the threshold
pKd (MAGI2_5, Q86UL8; [2]): below the threshold
pKd (SIPA1L2, Q9P2F8; [2]): below the threshold
pKd (FRMPD1, Q5SYB0; [2]): below the threshold
pKd (FRMPD3, Q5JV73; [2]): below the threshold
pKd (GRIP1_5, Q9Y3R0; [2]): below the threshold
pKd (NHERF3_4, Q5T2W1; [2]): below the threshold
pKd (APBA2_1, Q99767; [2]): below the threshold
pKd (LRRC7, Q96NW7; [2]): below the threshold
pKd (PDLIM1, O00151; [2]): below the threshold
pKd (RADIL, Q96JH8; [2]): below the threshold
pKd (APBA2_2, Q99767; [2]): below the threshold
pKd (MAST2, Q6P0Q8; [2]): below the threshold
pKd (DLG4_1, P78352; [2]): below the threshold
pKd (TJP1_2, Q07157; [2]): below the threshold
pKd (APBA1_2, Q02410; [2]): below the threshold
pKd (DLG3_2, Q92796; [2]): 3.72
pKd (MPP2, Q14168; [2]): below the threshold
pKd (GRIP2_5, Q9C0E4; [2]): below the threshold
